Measured values taken from patent US20250042994A1 (HAINAN SIMCERE ZAIMING PHARMACEUTICAL, published 2025).
Positions count from the first letter of the chain named.

T1: murine CD19 protein (murine, UniProt P25918 17-287, limits assumed)
T1 construct: bought protein; also called commercial murine CD19
T1 sequence (looked up): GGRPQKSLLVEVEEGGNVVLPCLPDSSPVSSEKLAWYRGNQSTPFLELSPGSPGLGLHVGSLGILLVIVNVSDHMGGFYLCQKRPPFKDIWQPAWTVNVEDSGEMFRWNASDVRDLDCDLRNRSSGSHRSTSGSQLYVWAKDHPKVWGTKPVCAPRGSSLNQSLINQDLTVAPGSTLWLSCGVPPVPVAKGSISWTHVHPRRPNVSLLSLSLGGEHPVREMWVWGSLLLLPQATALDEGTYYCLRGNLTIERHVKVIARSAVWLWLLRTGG

T2: human CD19 exon1-3-his protein (human, UniProt P15391 20-186, limits assumed)
T2 construct: made in HEK293E cells; also called membrane-distal end; not shown: His tag
T2 sequence (looked up): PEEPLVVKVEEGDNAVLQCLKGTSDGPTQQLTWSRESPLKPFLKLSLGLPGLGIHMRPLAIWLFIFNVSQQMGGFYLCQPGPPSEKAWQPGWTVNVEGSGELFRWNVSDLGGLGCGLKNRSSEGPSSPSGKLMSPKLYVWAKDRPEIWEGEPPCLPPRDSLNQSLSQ

B1: F3.121.4-L1H2 (antibody, mouse IgG1, kappa, V domains shown)
VH: EVQLVQSGAEVKKPGASVKVSCKASGYTFTNYWMHWVRQAPGQGLEWMGEIDPSDNYANYNQEFQGRVTITVDKSASTAYMELSSLRSEDTAVYYCARHDGYFGALDYWGQGTTVTVSS
VL: EIVLTQSPATLSLSPGERATLSCSASSSISSNYLHWYQQKPGQAPRFLIYRTSNLASGIPARFSGSGSGTDFTLTISSLEPEDFAVYYCQQASSIPRMFTFGQGTKLEIKR
notes: murine IgG1 constant regions; also called humanized antibody of F3.121.4
B2: F3.121.4-L2H2 (antibody, mouse IgG1, kappa, V domains shown)
VH: B1 VH
VL: EIVLTQSPDFQSVTPKEKVTITCSASSSISSNYLHWYQQKPDQSPKLLIKRTSNLASGVPSRFSGSGSGTDFTLTINSLEAEDAATYYCQQASSIPRMFTFGQGTKLEIKR
notes: as for B1
B3: F3.121.4-L2H4 (antibody, mouse IgG1, kappa)
heavy: EVQLQQSGAEVKKPGASVKVSCKASGYTFTNYWMHWVRQRPGQGLEWMGEIDPSDNYANYNQEFQGRVTITVDKSASTAYMELSSLRSEDTAVYYCARHDGYFGALDYWGQGTTVTVSSAKTTPPSVYPLAPGSAAQTNSMVTLGCLVKGYFPEPVTVTWNSGSLSSGVHTFPAVLQSDLYTLSSSVTVPSSTWPSETVTCNVAHPASSTKVDKKIVPRDCGCKPCICTVPEVSSVFIFPPKPKDVLTITLTPKVTCVVVDISKDDPEVQFSWFVDDVEVHTAQTQPREEQFNSTFRSVSELPIMHQDWLNGKEFKCRVNSAAFPAPIEKTISKTKGRPKAPQVYTIPPPKEQMAKDKVSLTCMITDFFPEDITVEWQWNGQPAENYKNTQPIMDTDGSYFVYSKLNVQKSNWEAGNTFTCSVLHEGLHNHHTEKSLSHSPGK
light: EIVLTQSPDFQSVTPKEKVTITCSASSSISSNYLHWYQQKPDQSPKLLIKRTSNLASGVPSRFSGSGSGTDFTLTINSLEAEDAATYYCQQASSIPRMFTFGQGTKLEIKRADAAPTVSIFPPSSEQLTSGGASVVCFLNNFYPKDINVKWKIDGSERQNGVLNSWTDQDSKDSTYSMSSTLTLTKDEYERHNSYTCEATHKTSTSPIVKSFNRNEC
notes: as for B1
B4: F3.121.4-L2H3 (antibody, mouse IgG1, kappa)
heavy: B3 heavy with Q5V
light: B3 light
notes: as for B1
B5: F3.121.4-L1H1 (antibody, mouse IgG1, kappa, V domains shown)
VH: B1 VH with G44R
VL: B1 VL
notes: as for B1
B6: F3.121.4-L1H3 (antibody, mouse IgG1, kappa)
heavy: B3 heavy with Q5V
light: EIVLTQSPATLSLSPGERATLSCSASSSISSNYLHWYQQKPGQAPRFLIYRTSNLASGIPARFSGSGSGTDFTLTISSLEPEDFAVYYCQQASSIPRMFTFGQGTKLEIKRADAAPTVSIFPPSSEQLTSGGASVVCFLNNFYPKDINVKWKIDGSERQNGVLNSWTDQDSKDSTYSMSSTLTLTKDEYERHNSYTCEATHKTSTSPIVKSFNRNEC
notes: as for B1
B7: F3.121.4-L3H3 (antibody, mouse IgG1, kappa)
heavy: B3 heavy with Q5V
light: B3 light with L47F, K50Y
notes: as for B1
B8: F3.121.4-L3H2 (antibody, mouse IgG1, kappa, V domains shown)
VH: B1 VH
VL: B2 VL with L47F, K50Y
notes: as for B1
B9: F3.121.4-L2H1 (antibody, mouse IgG1, kappa, V domains shown)
VH: B1 VH with G44R
VL: B2 VL
notes: as for B1
B10: F3.121.4-L1H4 (antibody, mouse IgG1, kappa)
heavy: B3 heavy
light: B6 light
notes: as for B1
B11: F3.121.4-L3H1 (antibody, mouse IgG1, kappa, V domains shown)
VH: B1 VH with G44R
VL: B2 VL with L47F, K50Y
notes: as for B1
B12: F3.121.4-L3H4 (antibody, mouse IgG1, kappa)
heavy: B3 heavy
light: B3 light with L47F, K50Y
notes: as for B1

These binders were tested against T1, murine CD19 protein (assay: ELISA).
Procedure: Human CD19-his protein (purchased from ACROBiosystems, catalog number: CD9-H52H2) was diluted with PBS to a final concentration of 4 μg/mL, and then added to a 96-well ELISA plate at 100 μl/well. The plate was sealed with a plastic film and incubated overnight at 4° C., the plate was washed 2 times with PBS the next day, and then a blocking solution [PBS+2% (w/w) BSA] was added for blocking at room temperature for 2 h. The blocking solution was poured off, and 100 nM gradiently diluted CD19 chimeric antibody or control antibody was added at 50 μl/well. After incubation at 37° C. for 2 h, the plate was washed 3 times with PBS. […] TMB substrate was added at 50 μl/well, and incubated at room temperature for 10 min, and then a stop solution (1.0 N HCl) was added at 50 μl/well. The OD450 nm values were read by an ELISA microplate reader (Multimode Plate Reader, EnSight, purchased from Perkin Elmer).
In order to detect the species cross-binding activity of the chimeric antibodies, an ELISA plate was coated with commercial murine CD19 (ACROBiosystems, catalog number: 50510-M08H) and monkey CD19 (ACROBiosystems, catalog number: 90051-C08H), respectively, and the ELISA detection was performed according to the method in example 5.1. […]
B1: no binding. B2: no binding. B3: no binding. B4: no binding. B5: no binding. B6: no binding. B7: no binding. B8: no binding. B9: no binding. B10: no binding. B11: no binding. B12: no binding.

These binders were tested against T2, human CD19 exon1-3-his protein (assay: ELISA, coated at 2 ug/mL).
B1: no binding. B2: no binding. B3: no binding. B4: no binding. B5: no binding. B6: no binding. B7: no binding. B8: no binding. B9: no binding. B10: no binding. B11: no binding. B12: no binding.
